Source: US20240092922A1 (EUCURE BEIJING BIOPHARMA, published 2024)

T1: monkey (Rhesus macaque) 4-1BB (r4-1BB) on transfected CHO cells (monkey (Rhesus macaque), UniProt Q07011 24-255 (human entry))
T1 construct: also called rm4-1BB; CHO-r4-1BB
T1 chain: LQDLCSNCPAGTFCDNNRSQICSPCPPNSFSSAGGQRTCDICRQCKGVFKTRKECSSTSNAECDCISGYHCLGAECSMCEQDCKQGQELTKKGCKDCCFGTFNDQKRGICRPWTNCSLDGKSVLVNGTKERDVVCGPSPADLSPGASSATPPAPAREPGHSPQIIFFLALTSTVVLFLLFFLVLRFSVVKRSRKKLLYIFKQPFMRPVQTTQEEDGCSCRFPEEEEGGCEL


Experiments:
[1] = molecular target: T2, human 4-1BB (h4-1BB) on transiently transfected CHO cells (human, UniProt Q07011 24-255); assay: flow cytometry, CHO cells transfected with human 4-1BB, antibody at 0.1 µg/ml
T2 construct: also called TNFRSF9; CD137

[2] = molecular target: T2, human 4-1BB (h4-1BB) on transiently …; assay: flow cytometry, CHO cells transfected with human 4-1BB, antibody at 0.001 µg/ml
[3] = molecular target: T3, mouse 4-1BB (m4-1BB) on transfected CHO cells (mouse, UniProt P20334 24-256); assay: flow cytometry on CHO cells transfected with mouse 4-1BB
T3 construct: also called CHO-m4-1BB
Method: 25 μl CHO cells were added to each well. 25 μl purified anti-h4-1BB antibodies (1 μg/ml) were added to each well and were incubated at 4° C. for 30 minutes.
After being washed with PBS (1200 rmp, 5 min) twice, 50 μl of FITC labeled anti-mouse IgG Fc antibody (anti-mIgG Fc-FITC) was added into each well at 1:100 dilution, followed by incubating at 4° C. for 30 minutes, and then PBS wash (1200 rmp, 5 min). In some cases, PE labeled anti-mouse IgG Fc antibody (anti-mIgG Fc-PE) was used to label the antibody instead, and was added into each tested well at 1:500 dilution. The signals for FITC and PE were determined by flow cytometry.

[4] = molecular target: T2, human 4-1BB (h4-1BB) on transiently …; assay: flow cytometry, CHO cells transfected with human 4-1BB, antibody at 0.01 µg/ml
[5] = molecular target: T4, chimeric (mouse and human) 4-1BB (c4-1BB) on transfected CHO cells (chimeric (mouse and human)); assay: flow cytometry on transfected CHO cells;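 also: antibodies tested at 1 µg/ml on CHO cells for 30 min at 4 °C, binding detected with FITC- or PE-labeled anti-mouse IgG Fc secondary by flow cytometry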
T4 construct: also called chi4-1BB; CHO-c4-1BB

[6] = molecular target: T1, monkey (Rhesus macaque) 4-1BB (r4-1BB) …; assay: flow cytometry on transfected CHO cells;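 also: antibodies tested at 1 µg/ml on CHO cells for 30 min at 4 °C, binding detected with FITC- or PE-labeled anti-mouse IgG Fc secondary by flow cytometry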
[7] = molecular target: T2, human 4-1BB (h4-1BB) on transiently …; assay: flow cytometry, CHO cells transfected with human 4-1BB, antibody at 1 µg/ml
Method: (§1) 25 μl CHO cells transiently transfected with human 4-1BB were added to each well in a plate. The purified antibodies were titrated to final concentrations of 10, 1, 0.1, 0.01, 0.001 μg/ml. The titrated antibodies were added to each well at 4° C. and incubated for 30 minutes.
(§2) After being washed with phosphate-buffered saline (PBS) (1200 rpm, 5 minutes) twice, 50 μl of FITC labeled anti-mouse IgG Fc antibody (anti-mIgG Fc-FITC) at 1:100 dilution was added into each well, and incubated for 30 minutes at 4° C., followed by PBS wash (1200 rpm, 5 minutes). The signal for FITC was detected by flow cytometry.

[8] = molecular target: T2, human 4-1BB (h4-1BB) on transiently …; assay: flow cytometry, CHO cells transfected with human 4-1BB, antibody at 10 µg/ml
Method: as §1, §2

Binder | percentage of cells with FITC signal [1] [%] | percentage of cells with FITC signal [2] [%] | binding result [3] | percentage of cells with FITC signal [4] [%] | binding result [5] | binding result [6] | percentage of cells with FITC signal [7] [%] | percentage of cells with FITC signal [8] [%]
45-8E2 (antibody, V domains shown, mouse antibody purified from ascites) VH: EVKLLESGGGLVQPGGSLKLSCAASGFDFSRYWMSWVRQAPGKGLEWIGEIHPDSSAINYTPSLKDKFIISRDNAKNTLYLQMSKVRSEDTALYYCARSYYGRVFDYWGQGTTLTVSS VL: DIVMTQSPATLSVTPGDRVSLSCRASQSISDYLHWYQQKSHESPRLLIKYASQSISGIPPRFSGSGSGSDFTLSINSVEPEDVGMYYCQDGHSFPPTFGAGTKLELK | 49.8 | 1.52 | no binding (tested: 1 µg/ml) | 9.06 | binds | binds | 60.1 | 58.9
61-6A7 (antibody, V domains shown, mouse antibody purified from ascites) VH: EVQLQQSGAELVRPGALVKLSCKASGFNIKDYYMHWVKRRPEQGLEWIGWIDPENGNTIYDPKFQDKASITADTSSNTAYLQLSSLTSEDTAVYYCAEGLPWYFDYWGQGTTLTVSS VL: QIILTQSPALMSASPGEKVTMTCSASSSVSDMNWYQQKPRSSPTPWIYLTSNLSSGVPDRFSGSGSGTSYSLTISSMEAEDAATYYCQQWSGNPLTFGAGTRLELK | 51.1 | 3.43 | no binding (tested: 1 µg/ml) | 17 | binds | binds | 60.1 | 63
69-3C2 (antibody, V domains shown, mouse antibody purified from ascites) VH: DVQLVESGGGLVQPGGSRKLSCAASGFSFSSFGMHWMRQAPEKGLEWVAYISSGSSAIYYADTVKGRFTISRDNPKNTLFLQMTSLRSEDTAMYYCARDWVDYWGQGTTLTVSS VL: DIQMTQSPASLSVSVGETVTITCRASENIYSNLVWYQQKQGKSPQLLVYTATKLTNGVPSRFSGSGSGTQYSLKINSLQSEDFGTYYCQHFWDTPYTFGGGTKLEMK | 52.3 | 0.183 | no binding (tested: 1 µg/ml) | 26.2 | binds | binds | 62.9 | 58.5
54-8B11 (antibody, V domains shown, mouse antibody purified from ascites) VH: QIQLVQSGPELKKPGETVKISCKASKFTFTNYGMNWVKQAPGKALKWMGWINTYTGEPTYADDFKGRFDFSLETSATTAYLQINNLKNEDTATYFCARREYYPWVFVYWGQGTLVTVSA VL: ENVLTQSPAIMSASPGEKVTMTCSASSSVSYMHWYQQKSSTSPKLWIYDTSKLASGVPGRFSGSGSGNSYSLTISSMEAEDVATYYCFQGSGYPLTFGGGTKLEIK | 16.5 | 0.111 | no binding (tested: 1 µg/ml) | 0.445 | binds | binds | 45 | 49.8
55-8F6 (antibody, V domains shown, mouse antibody purified from ascites) VH: QVQLQQPGAELVRPGASVKLSCKASGYIFTSYWINWVKQRPGQGLEWIGNIYPSDSYTNYNQKFKDKATLTVDKSSSTAYMQLSSPTSEDSAVYYCTRFHYGSSPFDNWGQGTTLTVSS VL: DIQMTQSTSSLSASLGDRVTISCRASQDISHYLNWYQQKPDGTVKLLIYYTSRLHSGVPSRFSGSGSGTDYSLTISNLEQEDFATYFCQQGHTLPRTFGGGTKLEIK | 36.1 | 0.375 | no binding (tested: 1 µg/ml) | 0.571 | binds | binds | 52.3 | 53.6
